Entries after “also recorded” stand apart in the source; their conditions may differ.
T1: GCK (Homo sapiens, UniProt P35557)
T1 construct: hexahistidine (N); made in house; host or cells: glucokinase auxotroph BM5340(DE3)
T1 sequence (P35557 1-465): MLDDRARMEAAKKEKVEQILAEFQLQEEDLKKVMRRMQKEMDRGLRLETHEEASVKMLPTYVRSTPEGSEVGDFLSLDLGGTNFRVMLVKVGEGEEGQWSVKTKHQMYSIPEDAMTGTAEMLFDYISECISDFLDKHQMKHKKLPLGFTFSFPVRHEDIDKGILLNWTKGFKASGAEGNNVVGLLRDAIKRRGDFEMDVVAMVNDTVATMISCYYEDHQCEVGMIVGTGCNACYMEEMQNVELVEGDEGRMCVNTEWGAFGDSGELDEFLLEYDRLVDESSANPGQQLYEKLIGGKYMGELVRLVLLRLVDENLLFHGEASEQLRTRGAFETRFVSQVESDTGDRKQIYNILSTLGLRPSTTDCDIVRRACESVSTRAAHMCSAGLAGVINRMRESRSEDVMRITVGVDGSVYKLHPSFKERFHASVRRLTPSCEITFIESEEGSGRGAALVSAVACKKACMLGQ

T2: human pancreatic GCK (Homo sapiens, UniProt P35557)
T2 construct: hexahistidine (N); made in house; host or cells: glucokinase auxotroph BM5340(DE3)
T2 sequence (P35557 1-465): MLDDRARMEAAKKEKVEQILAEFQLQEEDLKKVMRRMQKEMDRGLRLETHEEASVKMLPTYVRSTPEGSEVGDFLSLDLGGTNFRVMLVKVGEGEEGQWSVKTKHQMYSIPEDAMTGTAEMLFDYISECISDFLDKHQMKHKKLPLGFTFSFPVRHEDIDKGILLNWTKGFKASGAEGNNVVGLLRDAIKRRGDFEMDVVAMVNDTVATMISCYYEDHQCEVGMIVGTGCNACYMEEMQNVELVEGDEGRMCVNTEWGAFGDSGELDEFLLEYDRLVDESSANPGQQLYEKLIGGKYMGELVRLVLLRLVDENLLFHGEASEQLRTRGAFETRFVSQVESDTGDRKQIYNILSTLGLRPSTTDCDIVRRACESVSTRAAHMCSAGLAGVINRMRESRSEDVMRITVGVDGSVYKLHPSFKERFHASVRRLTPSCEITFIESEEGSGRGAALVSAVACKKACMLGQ


Tests used:
GCK [1] = target: T1, GCK; test: Fluorescence polarization, binding of fluorescent BH3 peptides to GCK; conditions: phosphorylation at position of Ser-118; trifluoroethanol 20–40%; S1 Fig: 34 μM f-pBH3, 40% trifluoroethanol
Experimental: (§1) Recombinant human pancreatic GCK containing an N-terminal hexahistidine tag was produced in the glucokinase auxotroph BM5340(DE3) and purified using a previously described procedure. TEV protease was expressed as a GST-fusion protein from a pGEX plasmid encoding the S219V variant, provided by David Waugh (Addgene plasmid 8827). Expression was induced with IPTG (1 mM) for 4 h at 30°C. Cell pellets were resuspended in Tris buffer (50 mM, pH 8.0) containing NaCl (100 mM), glycerol (10% v/v), benzamidine (1 mM) and dithiothreitol (10 mM) and lysed via French Press. Polyethyleneimine (0.1%) was added to the lysate and protein was purified on a glutathione-affinity column (GSTrap, GE Sciences). TEV protease was flash frozen and stored at -80°C for up to 1 month.
A fluorescence polarization assay developed by Zhang, et al. was utilized to measure interactions between BAD and its binding partners. Two 21-residue FITC-labeled peptides containing the BH3 domain of BAD were synthesized and purified to >95% by Peptide2.0 (f-BH3 = NLWAAQRYGRELRRMSDK(FITC)FVD; f-pBH3 = NLWAAQRYGRELRRM(p)SDK(FITC) FVD). Polarization was measured at room temperature with an excitation wavelength of 485 nm and an emission wavelength of 530 nm using a SpectraMax M5 microplate reader (Molecular Devices). […]

Bcl-xL = target: T3, Bcl-xL (Homo sapiens, UniProt Q07817, DEL45-84); test: Fluorescence polarization competition with f-BH3 for binding to Bcl-xL; conditions: for IC50: competitor 0–50 μM, room temperature, 15 min
T3 construct: made in house
Experimental: Exon 1 of human bcl-xl lacking the C-terminal residues 189–233 was obtained from Stanley Korsmeyer (Addgene plasmid 8755) and site-directed mutagenesis was performed to create the Δ45–84, Δ210–233 variant. Bcl-xL was expressed and purified using a modified procedure described previously. Briefly, Bcl-xL was purified by nickel affinity chromatography and dialyzed against potassium phosphate buffer (20 mM, pH 7.4) containing NaCl (50 mM), EDTA (1 mM), and DTT (10 mM). Protein was applied to a Superdex 200 10/30 HR size-exclusion column, at a flow rate of 0.02 mL/min, to remove aggregate and oligomers prior to binding assays.
A fluorescence polarization assay developed by Zhang, et al. was utilized to measure interactions between BAD and its binding partners. Two 21-residue FITC-labeled peptides containing the BH3 domain of BAD were synthesized and purified to >95% by Peptide2.0 (f-BH3 = NLWAAQRYGRELRRMSDK(FITC)FVD; f-pBH3 = NLWAAQRYGRELRRM(p)SDK(FITC) FVD). Polarization was measured at room temperature with an excitation wavelength of 485 nm and an emission wavelength of 530 nm using a SpectraMax M5 microplate reader (Molecular Devices). Experiments to measure binding constants of the fluorescent peptides to Bcl-xL or GCK were performed in black 96-well plates. Each well contained 15 nM peptide, 60 μL BAD buffer (0.1 M Tris, 0.1 M KCl, 0.5 M arginine, 2.5 mM CHAPS, 5 mM TCEP, 10% glycerol, pH 8.5) and variable concentrations of Bcl-xL (0–2.25 μM) or GCK (0–400 μM) in assay buffer (20 mM phosphate buffer, pH 7.4, 1 mM EDTA, 50 mM NaCl, 10 mM DTT) in a final volume of 120 μL. High GCK concentrations were chosen in an effort to detect a signal indicating a binding event. Assays containing GCK also contained 250 mM glucose. […] Plates were incubated at room temperature in the dark for 15 min prior to polarization measurements.

human pancreatic GCK [2] = target: T2, human pancreatic GCK; test: GCK activity, G6PDH-linked assay (lab's routine assay, 25°C); assay type: biochemical
Experimental: as §1
GCK activity was assayed using a glucose 6-phosphate dehydrogenase (G6PDH)-linked assay at 25°C. 50 nM GCK was assayed in buffer containing HEPES (100 mM, pH 7.4), KCl (50 mM), NADP^+ (0.5 mM), DTT (10 mM), MgCl2 (7 mM), G6PDH (1.5 U) and glucose (0–100 mM) in a total volume of […]. Addition of ATP (6 mM) initiated the reaction. Production of NADPH was measured at 340 nm. To determine the effect of BAD on GCK activity, 5 μL of BAD or buffer control was added to the reaction in a final volume of 100 μL. K0.5 values were determined by fitting to the Hill equation. The effect of BAD on GCK activity is reported as the percent rate increase at individual glucose concentrations, calculated as the average of a minimum of four rates of BAD-containing assays divided by the average of rates of BAD buffer-containing assays. The results represent the average of at least three independent preparations of pure BAD.

[3] = Circular dichroism spectroscopy (secondary structure); assay type: physicochemical; conditions: relative to (unmodified) BAD-GST, 25°C, pH 7.8
Experimental: Proteins were dialyzed overnight into potassium phosphate buffer (50 mM, pH 7.8) containing KCl (50 mM), glycerol (5% v/v), and TCEP (4 mM). CD spectra were recorded on an AVIV 202 CD spectrometer at 25°C with protein concentrations ranging from 3–15 μM. Spectra were recorded from 200–260 nm in 10 mm pathlength cuvettes using a 1 nm step resolution and 3 s integration time. Three scans were recorded per sample, averaged, and baseline subtracted with appropriate buffer controls. CD signals were converted to molar ellipticity and deconvoluted using CDPro Software.

GCK [4] = conditions: rabbit reticulocyte lysates; ref [8]; cited from earlier work
From the text: Several lines of evidence support a direct interaction between GCK and BAD. […] Kinetic assays re ... || The first indication of a putative interaction between full-length BAD and GCK came from the observation that both proteins co-localize with one another in a macromolecular complex purified from mouse hepatocyte mitochondrial extracts. […] In contrast to these experiments, our study utilizes active, highly purified homogeneous preparations of both proteins. The biochemical and biophysical e ...

BAD-deficient islets = conditions: ref [8]; cited from earlier work
From the text: The mitochondrial complex fails to form in the absence of BAD, resulting in reduced glucose-driven oxygen consumption and impaired GSIS in β-cells. […] In hepatocytes, BAD deficiency results in insulin resis ...

human pancreatic GCK [5] = target: T2, human pancreatic GCK; test: Analytical ultracentrifugation sedimentation velocity of equimolar mixtures with GCK; assay type: binding; conditions: equimolar mixture, BAD buffer pH 8.5, 20°C, 50,000 x g
Experimental: (§2) Sedimentation velocity experiments were conducted with an Optima XLI Ultracentrifuge (Beckman Coulter) using a four-hole rotor with three 420 μL samples in standard double-sector Epon centerpieces equipped with sapphire windows. Absorbance and interference data were collected simultaneously. Size-exclusion purified proteins were concentrated to OD280 nm = 0.3–1.0 prior to centrifugation. For complex formation, proteins were mixed in a 1:1 molar ratio in BAD buffer (0.1 M Tris, 0.1 M KCl, 0.5 M arginine, 2.5 mM CHAPS, 5 mM TCEP, 10% glycerol, pH 8.5) and incubated on ice 30 min prior to the start of the experiment. Experiments were carried out at 20°C and 50,000 x g. Data were analyzed with Ultrascan III software using a minimum of 70 scans per sample for analysis. Van Holde-Weischet analysis was performed to obtain S20,W values.

[6] = Isoelectric focusing of phosphorylated BAD-GST; assay type: physicochemical; conditions: IEF, IPG strips pH 4–7; four distinct populations
Experimental: Recombinant BAD-GST was phosphorylated with PKAc after refolding. 1 unit PKAc was added to 10 units BAD-GST and the reaction was dialyzed against BAD refolding buffer (0.1 M Tris, 0.1 M KCl, 0.2 M arginine, 2.5 mM CHAPS, 5 mM DTT, 10% glycerol, pH 8.5) containing ATP (3 mM) and MgCl2 (20 mM). Reactions were carried out at 4°C overnight. PKAc and excess ATP were removed from BAD-GST via glutathione-affinity chromatography (GSTrap, GE Healthcare). The extent of phosphorylation was established via mass spectrometry and 2D-IEF-SDS-PAGE using ReadyStrip IPG strips (Bio-Rad) with a pH range of 4–7. pET28badgst was subjected to site-directed mutagenesis to remove sites of phosphorylation (Ser-to-Ala) or to incorporate phosphorylation mimics (Ser-to-Asp) using the QuikChange™ Site-directed mutagenesis kit (Stratagene).

[7] = Analytical ultracentrifugation sedimentation velocity (oligomerization, shape); assay type: physicochemical; conditions: sedimentation velocity, 20°C, 50,000 x g; unity = compact sphere
Experimental: as §2

T3 sequence (Q07817 with tags, fused parts or gaps DEL45-84): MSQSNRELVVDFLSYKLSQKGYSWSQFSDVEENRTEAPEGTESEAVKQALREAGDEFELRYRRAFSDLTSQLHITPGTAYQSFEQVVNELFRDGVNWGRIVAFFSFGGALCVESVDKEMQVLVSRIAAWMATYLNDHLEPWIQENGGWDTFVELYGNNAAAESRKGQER

Molecule	Binding to GCK, phosphorylated fluorescent peptide / trifluoroethanol (GCK [1])	IC50 (Bcl-xL; 200 nM f-BH3, 50 nM Bcl-xL) [nM]	Increase in GCK activity, GST tag removed (human pancreatic GCK [2]; 0.5, 0.78 and 1.0 mM glucose, data not shown)	CD comparison (in words) [3]	Coimmunoprecipitation with GCK (GCK [4])	Effect on impaired insulin response or GSIS of BAD-deficient islets (BAD-deficient islets)	Competition with f-BH3 binding to Bcl-xL (in words) (Bcl-xL; 200 nM f-BH3, 50 nM Bcl-xL, GST up to 10 μM, BAD-GST phosphorylated by PKA)	Ability to interact with Bcl-xL (in words) (Bcl-xL; ITC and fluorescence polarization assays)	Complex with GCK by analytical ultracentrifugation (human pancreatic GCK [5])	pI values [6]	Increase in GCK activity over unmodified BAD-GST (human pancreatic GCK [2]; 1.0 mM glucose, BAD-GST phosphorylated by PKA) [%]	Hill coefficient H of GCK in presence of pBAD-GST (human pancreatic GCK [2]; Fig 6A, GCK alone: H = 1.7)	K0.5 (glucose) of GCK in presence of pBAD-GST (human pancreatic GCK [2]; Fig 6A, GCK alone: K0.5 = 8.6 mM, Hill equation fit) [mM]	kcat of GCK in presence of pBAD-GST (human pancreatic GCK [2]; Fig 6A, GCK alone: kcat = 38.1 s^-1) [s^-1]	Difference in effect on GCK activity, phosphorylated versus unmodified BAD-GST (human pancreatic GCK [2]; all glucose concentrations other than 1.0 mM)	Maximum increase in GCK activity (human pancreatic GCK [2]; glucose below K0.5, phosphorylated BAD > 2 μM) [%]	Frictional ratio f/f0 [7]
NLWAAQRYGRELRRM(p)SDK(FITC) FVD [f-pBH3, 21-residue FITC-labeled phosphorylated peptide containing the BH3 domain of BAD]	does not affect f-pBH3 binding to GCK																
BAD: BAD following cleavage and removal of the GST tag (protein, left off: His6, N-terminal, state not stated | GST, C-terminal, kept) MFQIPEFEPSEQEDSSSAERGLGPSPAGDGPSGSGKHHRQAPGLLWDASHQQEQPTSSSHHGGAGAVEIRSRHSSYPAGTEDDEGMGEEPSPFRGRSRSAPPNLWAAQRYGRELRRMSDEFVDSFKKGLPRPKSAGTATQMRQSSSWTRVFQSWWDRNLGRGSSAPSQ		440	7–12%	nearly identical	co-immunoprecipitates with GCK; also recorded: can coimmunoprecipitate with GCK	restores GSIS											
phosphorylated BAD-GST: BAD-GST phosphorylated in vitro with PKAc at S75, S99, S118 (protein, phosphoserine at 75, 99 and 118 (all three sites found by mass spectrometry; four populations by isoelectric focusing); left off: His6, N-terminal, state not stated | GST, C-terminal, kept, BAD-GST phosphorylated in vitro with PKAc at S75, S99, S118) MFQIPEFEPSEQEDSSSAERGLGPSPAGDGPSGSGKHHRQAPGLLWDASHQQEQPTSSSHHGGAGAVEIRSRHSSYPAGTEDDEGMGEEPSPFRGRSRSAPPNLWAAQRYGRELRRMSDEFVDSFKKGLPRPKSAGTATQMRQSSSWTRVFQSWWDRNLGRGSSAPSQ		≥ 1600		a higher degree of α-helical content compared to unmodified BAD-GST			abrogrates the protein’s ability to compete with f-BH3	significantly impaired in their ability to interact with Bcl-xL	no evidence of a higher molecular weight complex	4–7	5	1.6	8.8	38.4	no statistical difference	15	3.1
